The target in assay [1] is human TROP2 (hTROP2) on cells (human). Description: cell-based or functional assay.
For assay [2] the target is unchanged. Briefly: flow cytometry, NCI-H292 cells (express HER2 and TROP2). For orientation: Flow cytometry measures light scatter and fluorescence of single cells or particles in a stream.
The target is the same in assay [3]. Description: flow cytometry, NCI-N87 cells (express HER2 and TROP2).

Sequence of human TROP2 (hTROP2) on cells (human) (P09758 whole entry): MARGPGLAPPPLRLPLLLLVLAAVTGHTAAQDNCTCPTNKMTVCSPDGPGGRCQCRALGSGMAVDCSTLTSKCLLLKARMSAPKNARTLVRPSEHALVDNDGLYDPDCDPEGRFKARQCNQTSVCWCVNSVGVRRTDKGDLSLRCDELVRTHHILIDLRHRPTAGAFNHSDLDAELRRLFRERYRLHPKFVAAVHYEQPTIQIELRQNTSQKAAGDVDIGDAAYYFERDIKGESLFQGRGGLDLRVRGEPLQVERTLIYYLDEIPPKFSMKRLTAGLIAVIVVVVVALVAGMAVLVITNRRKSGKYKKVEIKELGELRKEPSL

B1: DS-1062 antibody analog (antibody, INN chains, looked up, V domains shown)
VH: QVQLVQSGAEVKKPGASVKVSCKASGYTFTTAGMQWVRQAPGQGLEWMGWINTHSGVPKYAEDFKGRVTISADTSTSTAYLQLSSLKSEDTAVYYCARSGFGSSYWYFDVWGQGTLVTVSS
VL: DIQMTQSPSSLSASVGDRVTITCKASQDVSTAVAWYQQKPGKAPKLLIYSASYRYTGVPSRFSGSGSGTDFTLTISSLQPEDFAVYYCQQHYITPLTFGQGTKLEIK
B1: in assay [1], the endocytosis: MFI worked out at 21800 and the endocytosis: Percentage of Positive (%) is 43.9%.

B2: Sacituzumab govitecan antibody analog (antibody, INN chains, looked up, V domains shown)
VH: QVQLQQSGSELKKPGASVKVSCKASGYTFTNYGMNWVKQAPGQGLKWMGWINTYTGEPTYTDDFKGRFAFSLDTSVSTAYLQISSLKADDTAVYFCARGGFGSSYWYFDVWGQGSLVTVSS
VL: DIQLTQSPSSLSASVGDRVSITCKASQDVSIAVAWYQQKPGKAPKLLIYSASYRYTGVPDRFSGSGSGTDFTLTISSLQPEDFAVYYCQQHYITPLTFGAGTKVEIKR
For the molecule B2, the flow cytometry test result (%) in assay [2] worked out at 97.4%. Further, in assay [1], the endocytosis, direct detection: MFI came to 16600; the endocytosis, direct detection: Percentage of Positive Population came out at 70.1%; the endocytosis, indirect detection: MFI is 16100; the endocytosis, indirect detection: Percentage of Positive Population turned out to be 72.2%. In assay [1], this molecule displayed an endocytosis: MFI of 23000 and an endocytosis: Percentage of Positive (%) of 51.2%. For the same molecule, the flow cytometry test result (%) in assay [3] amounted to 98.7%.

Values taken from patent publication US20250059297A1.
